The record followed here is patent US10577424 (BEIJING MABWORKS BIOTECH, dated 2020).

For experiment [1], the target named is T1, human VISTA expressed on HEK293A cells (human, UniProt Q9H7M9 33-311).
T1 construct: also called HEK293A/humanVISTA; HEK293A/human VISTA
T1 sequence: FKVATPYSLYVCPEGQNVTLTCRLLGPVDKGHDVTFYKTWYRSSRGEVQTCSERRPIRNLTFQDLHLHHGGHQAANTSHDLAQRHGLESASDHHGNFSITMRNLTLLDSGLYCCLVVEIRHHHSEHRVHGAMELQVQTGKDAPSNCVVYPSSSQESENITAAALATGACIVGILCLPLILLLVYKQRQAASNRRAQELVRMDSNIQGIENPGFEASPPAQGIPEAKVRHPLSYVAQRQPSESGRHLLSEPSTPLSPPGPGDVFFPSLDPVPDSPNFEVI
The experiment can be described thus: FACS blocking assay on HEK293A/human VISTA cells; competitor 200 µg/ml VSIG3-hFc. Here is the method:
A cell-based blocking assay by FACS was performed using the HEK293A cells stably overexpressing human VISTA as generated in Example 1. Briefly, 10^5 HEK293A/human VISTA cells were seeded into each well of the 96-well plates and serially diluted anti-VISTA antibodies were added to the plates. After incubated at 4° C. for 1 hour, plates were washed 3 times with PBST. Then 200 μg/ml VSIG3-hFc fusion proteins were added into the plate. After incubation at 4° C. for 1 hour, the plates were washed with PBS for 3 times and then an PE coupled Goat Anti-human IgG (Thermofisher, USA, Cat # PAI-86078) diluted 500× was added to the plates. After incubation at 4° C. for 1 hour, the plates were washed with PBS for 3 times and then cell fluorescence was monitored using a FACS machine (BD).

For experiment [2], the target named is T2, monkey VISTA (ECD)-his (Sino Biological, Cat #: 90801-K08H) (cynomolgus monkey).
T2 construct: extracellular domain; Bought protein; also called cynoVISTA(ECD)-his; cynomolgus VISTA (ECD)-his
The experiment can be described thus: direct ELISA, coated cynoVISTA(ECD)-his. As for the experimental part:
(§1) Species-cross-reactivity of the 28 VISTA mAbs to monkey or mouse VISTA was further assessed by direct ELISA. Briefly, 500 ng/ml monkey VISTA (ECD)-his (Sino Biological, CN, Cat #: 90801-K08H) or mouse VISTA-his (Sino Biological, CN, Cat #:511550-M08H) was coated on 96-well ELISA plates followed by incubation with 100 μl of serially diluted anti-VISTA antibodies (starting from 40000 ng/ml). Goat anti-mouse IgG conjugated with HRP (Sigma, US, Cat #:A9309-1 ml) was used then. Anti-VISTA antibody JNJ-VSTB174 (referred to as JNJ) (prepared using the amino acid sequences disclosed in WO 2015/097536 A2 with human IgG1/kappa constant regions) was used as the reference.

Experiment [3] has as its target T3, human VISTA (ECD)-his (Sino Biological, Cat #:13482-H08H) (human, UniProt Q9H7M9 33-194).
T3 construct: extracellular domain; Bought protein; also called hVISTA(ECD)-his; recombinant human VISTA(ECD)-his; not shown: his tag
T3 sequence (looked up): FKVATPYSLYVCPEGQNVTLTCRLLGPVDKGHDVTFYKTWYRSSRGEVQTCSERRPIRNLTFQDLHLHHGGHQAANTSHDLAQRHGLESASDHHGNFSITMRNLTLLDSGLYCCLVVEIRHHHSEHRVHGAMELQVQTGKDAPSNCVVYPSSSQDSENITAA
In words: direct ELISA, coated hVISTA(ECD)-his. As for the experimental part: ELISA plates were coated with 500 ng/ml human VISTA (ECD)-his (Sino Biological, CN, Cat #:13482-H08H) at 4° C. overnight. The wells were blocked with 200 μl of blocking buffer (PBS containing 1% BSA, 1% goat serum, and 0.05% Tween 20) for 2 hours at room temperature, and then 100 μl of serially diluted anti-VISTA antibodies (starting from 40000 ng/ml) were added to each well and incubated for 1 hour at RT. Plates were washed for 3 times with PBST (PBS+0.05% Tween 20), added with Goat-anti-mouse IgG-HRP (Simga, US, Cat #:A9309-1 ml) diluted 5000×, and incubated for 1 hour at RT. Plates were developed with freshly prepared Ultra-TMB (BD, US, Cat #:555214) for 5 minutes at RT. Absorbance was read on a SpectraMax® i3× (Molecular Devies, US) at 450 nm.

Experiment [4] concerns the target T4, mouse VISTA expressed on HEK293A cells (mouse, UniProt Q9D659 33-308).
T4 construct: also called HEK293A/mouseVISTA; HEK293A/mouse VISTA
T4 sequence: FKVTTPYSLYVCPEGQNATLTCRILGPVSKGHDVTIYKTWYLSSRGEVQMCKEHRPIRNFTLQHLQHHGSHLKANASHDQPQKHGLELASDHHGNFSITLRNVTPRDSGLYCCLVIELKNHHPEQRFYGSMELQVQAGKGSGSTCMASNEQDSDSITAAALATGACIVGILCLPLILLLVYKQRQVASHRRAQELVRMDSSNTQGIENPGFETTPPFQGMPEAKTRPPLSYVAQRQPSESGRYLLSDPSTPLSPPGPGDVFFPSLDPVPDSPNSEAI
The experiment can be described thus: FACS on HEK293A/mouse VISTA cells. Here is the method:
(§2) Example 5 Mouse Anti-VISTA Monoclonal Antibodies Bound to Human and Monkey VISTA Expressed on HEK293A Cells To further determine whether anti-VISTA antibodies bound to human, monkey or mouse VISTA expressed on HEK293A cells, a cell-based binding assay by FACS was performed using the HEK293A cells stably overexpressing human, monkey or mouse VISTA as generated in Example 1, respectively. Briefly, 10^5 HEK293A cells were seeded into each well of the 96-well plates and serially diluted anti-VISTA antibodies were added to the plates. After incubated at 4° C. for 1 hour, plates were washed 3 times with PBST. Then, an APC coupled Goat Anti-Mouse IgG (BioLegend, US, Cat #:405308) diluted 500× was added to the plates. After incubation at 4° C. for 1 hour, the plates were washed with PBS for 3 times and then cell fluorescence was monitored using a FACS machine (BD).

The target in experiment [5] is T5, monkey VISTA expressed on HEK293A cells (monkey (cynomolgus)).
T5 construct: also called HEK293A/cynoVISTA; HEK293A/monkey VISTA
T5 chain: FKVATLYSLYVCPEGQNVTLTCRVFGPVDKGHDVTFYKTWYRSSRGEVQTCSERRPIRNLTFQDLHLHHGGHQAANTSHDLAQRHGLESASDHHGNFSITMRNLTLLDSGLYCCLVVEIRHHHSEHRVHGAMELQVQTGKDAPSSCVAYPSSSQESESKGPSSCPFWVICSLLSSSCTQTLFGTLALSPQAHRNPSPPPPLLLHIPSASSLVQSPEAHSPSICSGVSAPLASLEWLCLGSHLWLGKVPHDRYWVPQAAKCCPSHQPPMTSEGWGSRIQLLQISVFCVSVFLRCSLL
The experiment can be described thus: FACS on HEK-293A/cynoVISTA cells. As for the experimental part:
as §2

In experiment [6] the target is T1, human VISTA expressed on HEK293A cells. The experiment can be described thus: FACS on HEK-293A/hVISTA cells. Here is the method: as §2
Experiment [7] addresses T6, mouse VISTA-his (Sino Biological, Cat #:511550-M08H) (mouse, UniProt Q9D659 33-191).
T6 construct: extracellular domain; Bought protein; also called muVISTA-his; mouse VISTA (ECD)-his; not shown: his tag
T6 sequence (looked up): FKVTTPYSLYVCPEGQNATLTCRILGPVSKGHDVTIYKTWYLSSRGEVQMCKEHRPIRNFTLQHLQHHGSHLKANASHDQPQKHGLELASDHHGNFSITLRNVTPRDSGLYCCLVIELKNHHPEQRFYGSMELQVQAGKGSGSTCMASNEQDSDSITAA
In words: direct ELISA, coated mouse VISTA-his. As for the experimental part:
as §1
Background: In an ELISA, binding on a coated surface is turned into a signal by an enzyme label.

B1: mouse 161E5 anti-VISTA antibody (antibody, V domains shown)
VH: QVQLKQSGAELVRPGASVKLSCKASGYSFTDYYINWVKQRPGQGLEWIARIFPGSGNAYYNEKFKDKATLTVEKSSSAAYMQLSSLTSEDSAVYFCARDDSFYGYWYFDVWGTGTTVTVSS
VL: NIMMTQSPSSLAVSAGEKVTMSCKSSQSVLYSSNQKNYLAWYQQKPGQSPKLLIYWASTRESGVPDRFTGSGSGTDFTLTISSVQAEDLAVYYCHQYLSSYTFGGGTKLEIK
notes: also called mouse anti-VISTA antibodies from clone 161E5; murine antibody 161E5
By EC50 is commonly meant the concentration giving half of the maximal effect. As to B1, the EC50 was determined as 19000 pM in experiment [1]; 450 pM in experiment [2]; 320 pM in experiment [3]; 1200 pM in experiment [5]; 600 pM in experiment [6]. For the same molecule, the binding result is recorded as “no binding” in experiment [4] and “no binding (tested: starting from 40000 ng/ml)” in experiment [7].
